Measured values published in patent publication US20240101708A1 (Genentech, published 2024).

Target: T1, recombinant human RNF43 extracellular domain (human) (UniProt Q68DV7)
T1 sequence (looked up): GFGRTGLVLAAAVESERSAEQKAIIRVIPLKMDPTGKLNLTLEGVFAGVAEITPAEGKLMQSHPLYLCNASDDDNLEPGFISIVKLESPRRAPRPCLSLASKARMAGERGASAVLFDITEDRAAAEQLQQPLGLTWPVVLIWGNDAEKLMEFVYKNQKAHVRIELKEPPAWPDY
Assay: SPR Biacore 8K; antibody captured on Protein A; RNF43 ECD analyte; 25 C

B1: RNF43-19 (antibody, V domains shown)
VH: QQQLEESGGGLVKPGGTLTLTCKASGIDFSTYYYMCWVRQAPGKGLEWIACIYTGDGNTYYASWAKGRFTISKTSSTTVTLQMTSLTAADTATYFCARDLAGSSYYSGYYFKLWGPGTLVTVSS
VL: DVVMTQTPASVSEPVGGTVTIKCQASQSIGSNLAWYQQKPGQPPKLLIYSVSNLASGVSSRFKGSRSGTEYTLTISDLECADAATYYSQSGYYGSTYAFGGGTEVVVK
- Kd: 34.2 nM
